The test concerns the target α-skeletal muscle actin filaments (rabbit) (rabbit, UniProt P68135 1-377).

As for VADLIKKFESISKEE (domain or fragment) [L45 (msfGFPΔC9-LifeactΔN2)], the equilibrium dissociation constant (Kd) (as a rule, the free concentration of one partner at which half of the binding sites on the other are occupied at equilibrium, for simple one-to-one binding) is 4.5 µM.

B1: U20 (msfGFPΔC10-Utr28-222) (domain or fragment)
chain: EHNDVQKKTFTKWINARFSKSGKPPINDMFTDLKDGRKLLDLLEGLTGTSLPKERGSTRVHALNNVNRVLQVLHQNNVELVNIGGTDIVDGNHKLTLGLLWSIILHWQVKDVMKDVMSDLQQTNSEKILLSWVRQTTRPYSQVNVLNFTTSWTDGLAFNAVLHRHKPDLFSWDKVVKMSPIERLEHAFSKAQTYL
Molecule B1 registered a Kd of 13.2 µM.

For the molecule MGVADLIKKFESI (domain or fragment) [L22 (LifeactΔC4-msfGFPΔN7)], the Kd came out at 11.3 µM.

Values taken from doi:10.1101/2024.04.26.591305 (2024).
